Three substances from US20110318339A1 can be followed below.

For experiment [1], the target named is rHuman P-Cadherin/Fc Chimera, CF (Cat# 861-PC) (human) (UniProt P22223). Put plainly: Multispot ECL; Fab 232.5 nM.
For experiment [2], the target named is rHuman EGF R/Fc Chimera, CF (Cat# 344-ER) (human) (UniProt P00533). The experiment in a line: Multispot ECL; Fab 232.5 nM.
For experiment [3], the target named is rHuman P-Cadherin/Fc Chimera, CF (Cat# 861-PC) (human) (UniProt P22223). Put plainly: Multispot ECL; Fab 930 nM.
Experiment [4] has as its target rHuman EGF R/Fc Chimera, CF (Cat# 344-ER) (human) (UniProt P00533). Put plainly: Multispot ECL; Fab 930 nM.
Experiment [5] addresses rHuman P-Cadherin/Fc Chimera, CF (Cat# 861-PC) (human) (UniProt P22223). The experiment in a line: Multispot ECL; Fab 58.1 nM.
The target in experiment [6] is rHuman EGF R/Fc Chimera, CF (Cat# 344-ER) (human) (UniProt P00533). The experiment in a line: Multispot ECL; Fab 58.1 nM.
Experiment [7] has as its target rHuman P-Cadherin/Fc Chimera, CF (Cat# 861-PC) (human) (UniProt P22223). The experiment in a line: Multispot ECL; Fab 14.5 nM.
The target in experiment [8] is rHuman EGF R/Fc Chimera, CF (Cat# 344-ER) (human) (UniProt P00533). The experiment in a line: Multispot ECL; Fab 14.5 nM.
In experiment [9] the target is rHuman HGF R/c-MET/Fc Chimera, CF (Cat# 358-MT/CF) (human) (UniProt P08581). The experiment in a line: Multispot ECL; Fab 3.3 nM.
For experiment [10], the target named is rHuman IGF-1 sR, (IGF-1 sR), CF (Cat# 391-GR) (human) (UniProt P08069). Put plainly: Multispot ECL; Fab 3.3 nM.
The target of experiment [11] is rHuman Erythropoietin R/Fc Chimera, CF (Cat# 963-ER) (human) (UniProt P19235). Put plainly: Multispot ECL; Fab 3.3 nM.
rHuman Erythropoietin R/Fc Chimera, CF (Cat# 963-ER) (human), sequence (P19235 25-250, change not shown): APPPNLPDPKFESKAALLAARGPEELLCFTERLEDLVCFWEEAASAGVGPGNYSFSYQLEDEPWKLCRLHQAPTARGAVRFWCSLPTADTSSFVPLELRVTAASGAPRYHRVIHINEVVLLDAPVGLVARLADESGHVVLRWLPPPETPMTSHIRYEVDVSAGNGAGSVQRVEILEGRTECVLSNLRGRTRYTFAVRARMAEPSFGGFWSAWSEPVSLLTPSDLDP
The target of experiment [12] is rHuman EGF R/Fc Chimera, CF (Cat# 344-ER) (human) (UniProt P00533). Put plainly: Multispot ECL; Fab 3.3 nM.
Experiment [13] concerns the target rHuman Notch-1/Fc Chimera, CF (Cat# 3647-TK) (human) (UniProt P46531). Put plainly: Multispot ECL; Fab 3.3 nM.
Experiment [14] addresses rHuman ErbB2/Fc Chimera, CF (Cat# 1129-ER) (human) (UniProt P04626). The experiment in a line: Multispot ECL; Fab 3.3 nM.
The target in experiment [15] is rHuman HGF R/c-MET/Fc Chimera, CF (Cat# 358-MT/CF) (human) (UniProt P08581). The experiment in a line: Multispot ECL; Fab […].
The target of experiment [16] is rHuman IGF-1 sR, (IGF-1 sR), CF (Cat# 391-GR) (human) (UniProt P08069). The experiment in a line: Multispot ECL; Fab […].
Experiment [17] has as its target rHuman Erythropoietin R/Fc Chimera, CF (Cat# 963-ER) (human) (UniProt P19235). Put plainly: Multispot ECL; Fab […].
Experiment [18] has as its target rHuman EGF R/Fc Chimera, CF (Cat# 344-ER) (human) (UniProt P00533). Put plainly: Multispot ECL; Fab […].
In experiment [19] the target is rHuman Notch-1/Fc Chimera, CF (Cat# 3647-TK) (human) (UniProt P46531). The experiment in a line: Multispot ECL; Fab […].
Experiment [20] concerns the target rHuman ErbB2/Fc Chimera, CF (Cat# 1129-ER) (human) (UniProt P04626). The experiment in a line: Multispot ECL; Fab […].
Experiment [21] concerns the target rHuman HGF R/c-MET/Fc Chimera, CF (Cat# 358-MT/CF) (human) (UniProt P08581). The experiment in a line: Multispot ECL; Fab 52.5 nM.
For experiment [22], the target named is rHuman IGF-1 sR, (IGF-1 sR), CF (Cat# 391-GR) (human) (UniProt P08069). Put plainly: Multispot ECL; Fab 52.5 nM.
In experiment [23] the target is rHuman Erythropoietin R/Fc Chimera, CF (Cat# 963-ER) (human) (UniProt P19235). The experiment in a line: Multispot ECL; Fab 52.5 nM.
The target in experiment [24] is rHuman EGF R/Fc Chimera, CF (Cat# 344-ER) (human) (UniProt P00533). Put plainly: Multispot ECL; Fab 52.5 nM.
The target in experiment [25] is rHuman Notch-1/Fc Chimera, CF (Cat# 3647-TK) (human) (UniProt P46531). Put plainly: Multispot ECL; Fab 52.5 nM.
For experiment [26], the target named is rHuman ErbB2/Fc Chimera, CF (Cat# 1129-ER) (human) (UniProt P04626). Put plainly: Multispot ECL; Fab 52.5 nM.
In experiment [27] the target is rHuman HGF R/c-MET/Fc Chimera, CF (Cat# 358-MT/CF) (human) (UniProt P08581). The experiment in a line: Multispot ECL; Fab 210 nM.
The target of experiment [28] is rHuman IGF-1 sR, (IGF-1 sR), CF (Cat# 391-GR) (human) (UniProt P08069). The experiment in a line: Multispot ECL; Fab 210 nM.
Experiment [29] deals with rHuman Erythropoietin R/Fc Chimera, CF (Cat# 963-ER) (human) (UniProt P19235). The experiment in a line: Multispot ECL; Fab 210 nM.
The target of experiment [30] is rHuman EGF R/Fc Chimera, CF (Cat# 344-ER) (human) (UniProt P00533). The experiment in a line: Multispot ECL; Fab 210 nM.
For experiment [31], the target named is rHuman Notch-1/Fc Chimera, CF (Cat# 3647-TK) (human) (UniProt P46531). The experiment in a line: Multispot ECL; Fab 210 nM.
Experiment [32] has as its target rHuman ErbB2/Fc Chimera, CF (Cat# 1129-ER) (human) (UniProt P04626). Put plainly: Multispot ECL; Fab 210 nM.
Experiment [33] addresses rHuman P-Cadherin/Fc Chimera, CF (Cat# 861-PC) (human) (UniProt P22223). The experiment in a line: Multispot ECL; Fab 9.1 nM.
The target of experiment [34] is rHuman HGF R/c-MET/Fc Chimera, CF (Cat# 358-MT/CF) (human) (UniProt P08581). The experiment in a line: Multispot ECL; Fab 9.1 nM.
In experiment [35] the target is rHuman IGF-1 sR, (IGF-1 sR), CF (Cat# 391-GR) (human) (UniProt P08069). Put plainly: Multispot ECL; Fab 9.1 nM.
Experiment [36] addresses rHuman Erythropoietin R/Fc Chimera, CF (Cat# 963-ER) (human) (UniProt P19235). Put plainly: Multispot ECL; Fab 9.1 nM.
Experiment [37] deals with rHuman EGF R/Fc Chimera, CF (Cat# 344-ER) (human) (UniProt P00533). The experiment in a line: Multispot ECL; Fab 9.1 nM.
Experiment [38] addresses rHuman Notch-1/Fc Chimera, CF (Cat# 3647-TK) (human) (UniProt P46531). The experiment in a line: Multispot ECL; Fab 9.1 nM.
The target of experiment [39] is rHuman ErbB2/Fc Chimera, CF (Cat# 1129-ER) (human) (UniProt P04626). Put plainly: Multispot ECL; Fab 9.1 nM.
Experiment [40] has as its target rHuman P-Cadherin/Fc Chimera, CF (Cat# 861-PC) (human) (UniProt P22223). The experiment in a line: Multispot ECL; Fab 145 nM.
Experiment [41] deals with rHuman HGF R/c-MET/Fc Chimera, CF (Cat# 358-MT/CF) (human) (UniProt P08581). Put plainly: Multispot ECL; Fab 145 nM.
Experiment [42] addresses rHuman IGF-1 sR, (IGF-1 sR), CF (Cat# 391-GR) (human) (UniProt P08069). Put plainly: Multispot ECL; Fab 145 nM.
For experiment [43], the target named is rHuman Erythropoietin R/Fc Chimera, CF (Cat# 963-ER) (human) (UniProt P19235). Put plainly: Multispot ECL; Fab 145 nM.
Experiment [44] has as its target rHuman EGF R/Fc Chimera, CF (Cat# 344-ER) (human) (UniProt P00533). Put plainly: Multispot ECL; Fab 145 nM.
The target of experiment [45] is rHuman Notch-1/Fc Chimera, CF (Cat# 3647-TK) (human) (UniProt P46531). Put plainly: Multispot ECL; Fab 145 nM.
Experiment [46] addresses rHuman P-Cadherin/Fc Chimera, CF (Cat# 861-PC) (human) (UniProt P22223). Put plainly: Multispot ECL; Fab 36.3 nM.
The target of experiment [47] is rHuman HGF R/c-MET/Fc Chimera, CF (Cat# 358-MT/CF) (human) (UniProt P08581). Put plainly: Multispot ECL; Fab 36.3 nM.
Experiment [48] addresses rHuman IGF-1 sR, (IGF-1 sR), CF (Cat# 391-GR) (human) (UniProt P08069). Put plainly: Multispot ECL; Fab 36.3 nM.
Experiment [49] concerns the target rHuman Erythropoietin R/Fc Chimera, CF (Cat# 963-ER) (human) (UniProt P19235). The experiment in a line: Multispot ECL; Fab 36.3 nM.
Experiment [50] has as its target rHuman EGF R/Fc Chimera, CF (Cat# 344-ER) (human) (UniProt P00533). Put plainly: Multispot ECL; Fab 36.3 nM.
Experiment [51] addresses rHuman Notch-1/Fc Chimera, CF (Cat# 3647-TK) (human) (UniProt P46531). The experiment in a line: Multispot ECL; Fab 36.3 nM.
Experiment [52] has as its target rHuman ErbB2/Fc Chimera, CF (Cat# 1129-ER) (human) (UniProt P04626). The experiment in a line: Multispot ECL; Fab 36.3 nM.
Experiment [53] addresses rHuman P-Cadherin/Fc Chimera, CF (Cat# 861-PC) (human) (UniProt P22223). The experiment in a line: Multispot ECL; Fab 580 nM.
Experiment [54] has as its target rHuman HGF R/c-MET/Fc Chimera, CF (Cat# 358-MT/CF) (human) (UniProt P08581). The experiment in a line: Multispot ECL; Fab 580 nM.
In experiment [55] the target is rHuman IGF-1 sR, (IGF-1 sR), CF (Cat# 391-GR) (human) (UniProt P08069). The experiment in a line: Multispot ECL; Fab 580 nM.
Experiment [56] has as its target rHuman Erythropoietin R/Fc Chimera, CF (Cat# 963-ER) (human) (UniProt P19235). Put plainly: Multispot ECL; Fab 580 nM.
In experiment [57] the target is rHuman EGF R/Fc Chimera, CF (Cat# 344-ER) (human) (UniProt P00533). The experiment in a line: Multispot ECL; Fab 580 nM.
Experiment [58] has as its target rHuman Notch-1/Fc Chimera, CF (Cat# 3647-TK) (human) (UniProt P46531). Put plainly: Multispot ECL; Fab 580 nM.
Experiment [59] addresses rHuman ErbB2/Fc Chimera, CF (Cat# 1129-ER) (human) (UniProt P04626). Put plainly: Multispot ECL; Fab 580 nM.

Consider “Fab VH1-46_IGHD6-13*01_IGHJ4*01 & O1_IGKJ1*01”, for which the ECL signal is 655 in [1]; 803 in experiment [2]; 2440 in experiment [3]; 3110 in experiment [4]; 478 in experiment [5]; 444 in experiment [6]. In addition, the values for the ECL signal in experiment [7] and in experiment [8] were 277 and 357, respectively.
Turning to “Fab VH4-31_IGHD2-15*01_IGHJ2*01 & V1-4_IGLJ4*01”, the ECL signal in experiment [9] came to 849; in experiment [10] it was 743; in experiment [11] it was 695; in experiment [12] it was 847; in experiment [13], 726; in experiment [14], 1030. Besides, the ECL signal in experiment [15] was found to be 981; in [16], 814; in experiment [17] it was 776; in [18], 824; in [19], 669; in experiment [20], 930. Also, the ECL signal in [21] amounted to 1290; in [22], 911; in [23], 1320; in experiment [24] it was 1110; in experiment [25], 1320; in experiment [26] it was 1510. For the same substance, the ECL signal in experiment [27] came out at 2060; in experiment [28] it was 1430; in experiment [29], 2120; in [30] it was 1620; in experiment [31], 1970; in experiment [32], 1980.
Consider “Fab VH4-34_IGHD7-27*01_IGHJ4*01 & V1-4_IGLJ4*01”, for which the ECL signal was 589 in experiment [33]; 894 in experiment [34]; 788 in experiment [35]; 697 in experiment [36]; 800 in experiment [37]; 754 in experiment [38]. The ECL signal is 987 in experiment [39]; 850 in [40]; 1170 in experiment [41]; 794 in experiment [42]; 845 in experiment [43]; 856 in [44]. Further, the ECL signal is 860 in [45]; 684 in experiment [46]; 1060 in [47]; 799 in [48]; 722 in experiment [49]; 831 in [50]. Further, the ECL signal amounted to 633 in experiment [51]; 1030 in experiment [52]; 2240 in experiment [53]; 2340 in [54]; 1360 in experiment [55]; 1580 in experiment [56]. Besides, the values for the ECL signal in experiment [57], in [58] and in experiment [59] were 1630, 1580 and 1710, respectively.
